Legend:
Experiment in all cases: capture ELISA: Ab1 on anti-human IgG Fc, His-tagged receptor at 1 µg/mL, anti-His HRP
[1] = molecular target: T1, hexahistidine tagged human IL-4Rα ECD K2D (human, UniProt P24394 26-232)
T1 construct: not shown: hexahistidine tag
Text: (§1) Example 2d. […] Briefly, thirty surface amino acid residue substitutions were introduced individually into hexahistidine tagged human IL-4Rα extra cellular domain (ECD) as follows: K2D, E6R, K22D, P26R, T31R, F41A, L42G, L43G, E45R, E52R, G56R, D66R, A71R, Q82G, K87D, E94R, H107A, D108R, P124R, D125R, D143R, R148D, L155R, R160D, S164R, S168R, Q181R, P192R, K195D, or H197G. Each mutant protein having a single amino acid residue substitution as described above was transiently expressed in CHO cells and purified using standard immobilized metal affinity chromatography techniques. […] The plates were then washed 3 times with PBST and the exemplified human IL-4Rα antibody was added to the wells at a final concentration of 1 μg/mL in PBS-casein and incubated for 1 hour at room temperature. The plates were washed 3 times with PBST, the IL-4Rα mutant proteins were serially diluted 5-fold from 1 μg/mL for 3 points. in PBS-casein and added to the plate at 50 μL/well and incubated for 1 hour at room temperature. The plates were washed 3 times with PBST and a 1000-fold dilution of anti-histidine tag antibody HRP conjugate (R&D Systems, Cat. #MAB050H) in PBS-casein was added and incubated for 45 minutes at room temperature. The plates were washed 3 times, TMB substrate (Pierce, Cat. #34028) was added per manufacturer instructions, the reaction was quenched with H₂SO₄, and absorbance was read at 450 nm on an ELISA plate reader.

[2] = molecular target: T2, hexahistidine tagged human IL-4Rα ECD K22D (human, UniProt P24394 26-232)
T2 construct: not shown: hexahistidine tag
T2 sequence (P24394 26-232 K47D): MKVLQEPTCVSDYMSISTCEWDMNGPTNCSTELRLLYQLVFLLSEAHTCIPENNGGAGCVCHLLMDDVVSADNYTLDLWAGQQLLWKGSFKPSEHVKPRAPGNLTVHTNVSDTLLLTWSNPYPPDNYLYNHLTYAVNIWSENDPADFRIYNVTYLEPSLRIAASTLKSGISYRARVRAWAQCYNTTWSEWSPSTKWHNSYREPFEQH
Text: as §1

[3] = molecular target: T3, hexahistidine tagged human IL-4Rα ECD P26R (human, UniProt P24394 26-232)
T3 construct: not shown: hexahistidine tag
Text: as §1

[4] = molecular target: T4, hexahistidine tagged human IL-4Rα ECD F41A (human, UniProt P24394 26-232)
T4 construct: not shown: hexahistidine tag
Text: as §1

[5] = molecular target: T5, hexahistidine tagged human IL-4Rα ECD E94R (human, UniProt P24394 26-232)
T5 construct: not shown: hexahistidine tag
T5 sequence (P24394 26-232 E119R): as the sequence (P24394 26-232 K47D) above, with D22K, E94R counted along it
Text: as §1

[6] = molecular target: T6, hexahistidine tagged human IL-4Rα ECD R148D (human, UniProt P24394 26-232)
T6 construct: not shown: hexahistidine tag
T6 sequence (P24394 26-232 R173D): as the sequence (P24394 26-232 K47D) above, with D22K, R148D counted along it
Text: as §1

[7] = molecular target: T7, hexahistidine tagged human IL-4Rα ECD P192R (human, UniProt P24394 26-232)
T7 construct: not shown: hexahistidine tag
Text: as §1

T1 sequence (P24394 other isoform, or with tags, fused parts or gaps): as the sequence (P24394 26-232 K47D) above, with K2D, D22K counted along it

- ELISA (OD450) [1]: 2.05 OD450
- ELISA (OD450) [2]: 1.67 OD450
- ELISA (OD450) [3]: 1.66 OD450
- ELISA (OD450) [4]: 1.76 OD450
- ELISA (OD450) [5]: 1.73 OD450
- ELISA (OD450) [6]: 1.76 OD450
- ELISA (OD450) [7]: 1.94 OD450
B1: anti-human IL-4Rα antibody Ab1 (antibody, human IgG4 S228P, kappa)
heavy: QVQLVESGGGLVQPGGSLRLSCVASGFTFSHSSMNWVRQAPGKGLEWVSYISRATGAVYYADSVKGRFTISRDNAKNSLYLQMNSLRDEDTAVYYCAREPVFDYWGQGTLVTVSSASTKGPCVFPLAPCSRSTSESTAALGCLVKDYFPEPVTVSWNSGALTSGVHTFPAVLQSSGLYSLSSVVTVPSSSLGTKTYTCNVDHKPSNTKVDKRVESKYGPPCPPCPAPEFLGGPSVFLFPPKPKDTLMISRTPEVTCVVVDVSQEDPEVKFNWYVDGVEVHNAKTKPREEQFNSTYRVVSVLTVLHQDWLNGKEYKCKVSNKGLPSSIEKTISKAKGQPREPQVYTLPPSREEMTKNQVSLTCLVKGFYPSDICVEWESNGQPENNYKTTPPVLDSDGSFFLYSRLTVDKSRWQQGNVFSCSVMHEALHNHYTQKSLSLSLG
light: DIQMTQSPSAMSASVGDRVTITCRASQDISNYLAWFQQKPGKVPTRLIYAASSLQSGVPSRFSGSGSGTEFTLTISSLQPEDFATYYCLQWSSYPRTFGQGTKVEIKRTVAAPSVFIFPPSDEQLKSGTASVVCLLNNFYPREAKVQWKVDNALQSGNSQESVTEQDSKDSTYSLSSTLTLSKADYEKHKVYACEVTHQGLSSPVTKSFNRGEC
notes: human kappa light chain; also called anti-human IL-4Rα Ab1; unconjugated Ab1

From patent US20240100176A1 (Eli Lilly, published 2024)
